Data on two variants can be found in IntAct's records for PubMed 23954233.

The labels stand for the following.
B1: F-box DNA helicase 1 (Homo sapiens), Q8NFZ0 (parent)
chain: MRRFKRKHLTAIDCQHLARSHLAVTQPFGQRWTNRDPNHGLYPKPRTKRGSRGQGSQRCIPEFFLAGKQPCTNDMAKSNSVGQDSCQDSEGDMIFPAESSCALPQEGSAGPGSPGSAPPSRKRSWSSEEESNQATGTSRWDGVSKKAPRHHLSVPCTRPREARQEAEDSTSRLSAESGETDQDAGDVGPDPIPDSYYGLLGTLPCQEALSHICSLPSEVLRHVFAFLPVEDLYWNLSLVCHLWREIISDPLFIPWKKLYHRYLMNEEQAVSKVDGILSNCGIEKESDLCVLNLIRYTATTKCSPSVDPERVLWSLRDHPLLPEAEACVRQHLPDLYAAAGGVNIWALVAAVVLLSSSVNDIQRLLFCLRRPSSTVTMPDVTETLYCIAVLLYAMREKGINISNRIHYNIFYCLYLQENSCTQATKVKEEPSVWPGKKTIQLTHEQQLILNHKMEPLQVVKIMAFAGTGKTSTLVKYAEKWSQSRFLYVTFNKSIAKQAERVFPSNVICKTFHSMAYGHIGRKYQSKKKLNLFKLTPFMVNSVLAEGKGGFIRAKLVCKTLENFFASADEELTIDHVPIWCKNSQGQRVMVEQSEKLNGVLEASRLWDNMRKLGECTEEAHQMTHDGYLKLWQLSKPSLASFDAIFVDEAQDCTPAIMNIVLSQPCGKIFVGDPHQQIYTFRGAVNALFTVPHTHVFYLTQSFRFGVEIAYVGATILDVCKRVRKKTLVGGNHQSGIRGDAKGQVALLSRTNANVFDEAVRVTEGEFPSRIHLIGGIKSFGLDRIIDIWILLQPEEERRKQNLVIKDKFIRRWVHKEGFSGFKRYVTAAEDKELEAKIAVVEKYNIRIPELVQRIEKCHIEDLDFAEYILGTVHKAKGLEFDTVHVLDDFVKVPCARHNLPQLPHFRVESFSEDEWNLLYVAVTRAKKRLIMTKSLENILTLAGEYFLQAELTSNVLKTGVVRCCVGQCNNAIPVDTVLTMKKLPITYSNRKENKGGYLCHSCAEQRIGPLAFLTASPEQVRAMERTVENIVLPRHEALLFLVF

The variants in the first experiment derive from B1. The conditions noted are these: with src_human SRC.
For I1030F, the “effect of a mutation on the interaction” value was “disrupting interaction”.

In a further experiment the parent is B1. The conditions noted are these: with src_human SRC. This is another data set of the same source.
G774R: the “effect of a mutation on the interaction” value was “decreasing interaction”.
